Laboratory results published in patent US20230321261A1 (published 2023).
Each block holds one binder with its values, some of them ahead of it.

Assays:
[1] = target: T1, Mus musculus AXL (p33-HAMm-AXL) (human (Homo sapiens) AXL with mouse …, UniProt Q00993 1-888 (mouse entry)); assay: flow cytometry, transfected HEK293F cells
T1 construct: also called hsAXL-mmECD
T1 chain: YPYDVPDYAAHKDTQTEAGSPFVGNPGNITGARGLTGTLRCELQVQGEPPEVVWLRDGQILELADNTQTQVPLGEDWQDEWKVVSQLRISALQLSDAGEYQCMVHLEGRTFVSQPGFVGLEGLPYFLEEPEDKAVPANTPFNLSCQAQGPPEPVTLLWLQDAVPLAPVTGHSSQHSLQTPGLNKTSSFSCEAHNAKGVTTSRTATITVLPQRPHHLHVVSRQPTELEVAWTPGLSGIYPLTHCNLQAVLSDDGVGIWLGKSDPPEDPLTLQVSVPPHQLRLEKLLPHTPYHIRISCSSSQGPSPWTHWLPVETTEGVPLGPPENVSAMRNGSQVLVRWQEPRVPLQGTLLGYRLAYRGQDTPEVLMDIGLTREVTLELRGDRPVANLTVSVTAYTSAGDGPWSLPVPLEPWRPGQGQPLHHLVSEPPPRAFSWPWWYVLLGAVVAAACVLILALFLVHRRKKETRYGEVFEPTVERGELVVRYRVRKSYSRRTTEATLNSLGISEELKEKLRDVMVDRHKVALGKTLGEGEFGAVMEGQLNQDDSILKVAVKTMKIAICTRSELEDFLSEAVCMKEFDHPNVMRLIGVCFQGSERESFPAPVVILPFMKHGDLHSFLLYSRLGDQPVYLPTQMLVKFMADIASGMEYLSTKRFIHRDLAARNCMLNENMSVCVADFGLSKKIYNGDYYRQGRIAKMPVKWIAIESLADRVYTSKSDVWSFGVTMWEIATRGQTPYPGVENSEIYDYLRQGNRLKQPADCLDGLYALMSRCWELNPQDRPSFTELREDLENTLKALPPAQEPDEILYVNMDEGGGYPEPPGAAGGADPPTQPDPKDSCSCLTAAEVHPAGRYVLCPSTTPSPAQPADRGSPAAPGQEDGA

[2] = target: T2, Homo sapiens AXL - Mus musculus FN2 domain (p33-AXL-mFN2) (human (Homo sapiens) AXL with mouse …, UniProt P30530 26-894); assay: flow cytometry, transfected HEK293F cells
T2 construct: also called hsAXL-mmFN2
T2 chain: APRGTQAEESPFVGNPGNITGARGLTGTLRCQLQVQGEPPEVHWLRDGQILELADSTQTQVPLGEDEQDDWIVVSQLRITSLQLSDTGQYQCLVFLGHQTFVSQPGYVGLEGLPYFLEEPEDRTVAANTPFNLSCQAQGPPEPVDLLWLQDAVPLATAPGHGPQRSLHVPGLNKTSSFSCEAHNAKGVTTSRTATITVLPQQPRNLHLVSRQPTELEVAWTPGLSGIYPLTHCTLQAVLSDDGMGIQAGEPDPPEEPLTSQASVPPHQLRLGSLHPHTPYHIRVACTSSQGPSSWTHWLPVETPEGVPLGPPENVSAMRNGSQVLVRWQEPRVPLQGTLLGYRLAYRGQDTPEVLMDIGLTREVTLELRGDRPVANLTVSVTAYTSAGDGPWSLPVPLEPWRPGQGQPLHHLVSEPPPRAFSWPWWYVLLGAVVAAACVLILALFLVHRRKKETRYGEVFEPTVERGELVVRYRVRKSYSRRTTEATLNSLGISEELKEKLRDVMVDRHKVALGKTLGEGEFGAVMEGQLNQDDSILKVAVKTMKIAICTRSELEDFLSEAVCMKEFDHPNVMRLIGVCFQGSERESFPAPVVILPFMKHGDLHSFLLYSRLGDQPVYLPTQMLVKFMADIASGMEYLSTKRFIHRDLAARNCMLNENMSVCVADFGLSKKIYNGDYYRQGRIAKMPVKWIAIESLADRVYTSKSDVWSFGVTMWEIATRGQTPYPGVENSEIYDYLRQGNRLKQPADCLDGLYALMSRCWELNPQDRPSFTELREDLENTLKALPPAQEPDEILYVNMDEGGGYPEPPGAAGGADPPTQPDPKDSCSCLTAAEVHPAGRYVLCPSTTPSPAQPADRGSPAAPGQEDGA

B3: IgG1-AXL-613 (antibody, V domains shown)
VH: QVQLVQSGAEVKKPGSSVKVSCKASGGTFSSYAINWMRQAPGQGLEWMGRIIPIFGIVNYAQKFQGRVTLTADKSTSTAYMELSSLRSEDTAVYYCARRGNYYGSGSPDVFDIWGQGTMVTVSS
VL: not shown
notes: expressed as IgG1,κ
binding result [1]: no binding (tested: 1 µg/mL)

B4: IgG1-AXL-726 (antibody, V domains shown)
VH: QVQLQQWGAGLLKPSETLSLTCAIDGGSFSGYYWSWIRQPPGKGLEWIGEISHSGRTNYNPSLKSRVTISIDTSKNQFSLKLSSVAAADTAVYYCARFITMIRGAIITHFDYWGQGALVTVSS
VL: DIQMTQSPSSLSASVGDRVTITCRASQGISSWLAWYQQKPEKAPKSLIYAASSLQSGVPSRFSGSGSGTDFTLTISSLQPEDFATYYCQQYHSYPYTFGQGTKLEIK
notes: expressed as IgG1,κ
binding result [2]: no binding (tested: 1 µg/mL)

Now from value to binder:

binding result [1]: no binding (tested: 1 µg/mL)
B1: IgG1-AXL-061 (antibody, V domains shown)
VH: QVQLVQSGAEVKKPGASVKVSCKASGYAFTGYGISWVRQAPGQGLEWIGWISAYNGNTNYVQNLQDRVTMTTDTSTSTAYMELRSLRSDDTAVYYCARDHISMLRGIIIRNYWGQGTLVTVSS
VL: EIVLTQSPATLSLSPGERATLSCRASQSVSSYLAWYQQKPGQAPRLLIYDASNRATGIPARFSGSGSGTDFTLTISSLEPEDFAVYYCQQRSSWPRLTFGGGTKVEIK
notes: expressed as IgG1,κ

binding result [1]: no binding (tested: 1 µg/mL)
B2: IgG1-AXL-137 (antibody, V domains shown)
VH: QVQLVQSGAEVKKPGSSVKVSCKASGGTFSRYAISWVRQAPGQGLEWMGRIIPIVGIANYAQKFQGRVTLTADKSTSTAYMELSSLRSEDTAVYYCAREAGYSSSWYAEYFQHWGQGTLVTVSS
VL: not shown
notes: expressed as IgG1,κ
